For data set [1], the target named is T1, IFN-γ (interferon gamma) (UniProt P01579 24-161). Briefly: graphene-Nafion FET biosensor.
Data set [2] addresses T1, IFN-γ (interferon gamma). The data set can be described thus: graphene-Nafion FET biosensor. This is another data set of the same source.

Like-named read-outs stand apart in the source and are kept apart here.

T1 sequence (P01579 24-161): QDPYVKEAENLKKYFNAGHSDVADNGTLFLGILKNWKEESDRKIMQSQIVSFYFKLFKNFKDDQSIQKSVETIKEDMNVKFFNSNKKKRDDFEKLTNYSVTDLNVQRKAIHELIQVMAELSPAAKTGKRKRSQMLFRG

Regarding GGGGTTGTTTGTGTTGGGTGTTGTGT (ssDNA, 5'-NH2) [IFN-γ-specific aptamer], the Kd (in general, the concentration at which binding is half-saturated) with IFN-γ (interferon gamma) [1] worked out at 4.39 nM; with IFN-γ (interferon gamma) [2], 4.21 nM.

The record behind these values is publication PMC13344369.
